Assay: soluble on expression in E. coli; label from the status in PepcDB or PDB records

Row | Sequence | soluble on expression in E. coli
1 | MGHHHHHHSHAPNCTRKSTQSDLAFFRFPRDPARCQKWVENCRRADLEDKTPDQLNKHYRLCAKHFETSMICRTSPYRTVLRDNAIPTIFDLTSHLNNP | not soluble
2 | MGHHHHHHSHASELQQHVYDRAHLLSKAEIGKLESLSAKLGAKRDTDFIIITTKSTNGEDIADYTGDFYDRYGKGSTAILTIDMTNREVFIAGFKKAEQYLDNSRLNSIRNTISSDLSNENYFEAFETYIQLSYKDMGIKPGVNPDNI | not soluble
3 | MGHHHHHHSHDKAIKETSILEEYSINWTQKLGAGISGPVRVCVKKSTQERFALKILLDRPKARNEVRLHMMCATHPNIVQIIEVFANSVQFPHESSPRARLLIVMEMMEGGELFHRISQHRHFTEKQASQVTKQIALALRHCHLLNIAHRDLKPENLLFKDNSLDAPVKLCDFGFAKIDQGDLMTPQFTPYYVAPQVLEAQRRHQKEKSGIIPTSPTPYTYNKSCDLWSLGVIIYVMLCGYPPFYSKHHSRTIPKDMRRKIMTGSFEFPEEEWSQISEMAKDVVRKLLKVKPERRLTIEGVLDHPWLNSTEALDNVLPSAQLMMDKAVVAGIQQAHAEQLANMRIQDLKVSLKPLHSVNNPILRKRKLLGTKPKDSVYIHDHENGAEDSNVALEKLRDVIAQCILPQAGENEDEKLNEVMQEAWKYNRECKLLRDTLQSFSWNGRGFTDKVDRLKLAEIVKQVIEEQT | soluble
4 | MGHHHHHHSHGSYANEISSSIIINRPAERLFDLWRKPETLPILMGHFASIEILNHTDSNWRINTPIGSLIEWQARIIDEKPGEYIHWRSLEGARVPNEGRLSFQPAASEAGTAVTLTIRYNPPGGLIGKKIGQMFDMFSRDMLTKTLYRFKKLAEDER | soluble
5 | MGHHHHHHSHIHRIDSTEVIYQPRRKRAKLIGKYLMGDLLGEGSYGKVKEVLDSETLCRRAVKILKKKKLRRIPNGEANVKKEIQLLRRLRHKNVIQLVDVLYNEEKQKMYMVMEYCVCGMQEMLDSVPEKRFPVCQAHGYFCQLIDGLEYLHSQGIVHK | soluble
6 | MGHHHHHHSHKNVVHQLSVTLEDLYNGATRKLALQKNVICDKCEGRGGKKGAVECCPNCRGTGMQIRIHQIGPGMVQQIQSVCMECQGHGERISPKDRCKSCNGRKIVREKKILEVHIDKGMKDGQKITFHGEGDQEPGLEPGDIIIVLDQKDHAVFT | not soluble
7 | MGHHHHHHSHKVYWGVAWDRSDVAVKIYLSFTSDFRKSIRKYIVGDPRFEDIPAGNIRRLIYEWARKEYRNLRRMRESGVRVPRPVAVEANIIVMEFLGEKGYRAPTLAEAVEELDRGEAEAIAAEVLRQAEAIVCRARLVHADLSEYNILVWRGEPWIIDVSQAVPHSHPNAEEFLERDVENLHRFLTGKMGFEFDFDAYLSRLKS | not soluble
8 | MGHHHHHHSHLSPDRRASLLTSLMLVKRDYRYDRVLFWGRILGLVADYYIAQGLSEDQLAPRKTLYSLNCTEWSLLPPATEEMVAQSSVVKGRFMGDPSYEYEHTELQKVNEGEKVFEEEIVVQIKEETRLVSVIDQIDKAVAIIPRGALFKTPFGPTHVNRTFEGLSLSEAKKLSSYFHFREPVELKNKTLLEKADLDPSLDFMDSLEHDIPKGSWSIQMERGNALVVLRSLLWPGLTFYHAPRTKNYGYVYVGTGEKNMDLPFML | not soluble
9 | MGHHHHHHSHMAAPLGGMFSGQPPGPPQAPPGLPGQASLLQAAPGAPRPSSSTLVDELESSFEACFASLVSQDYVNGTDQEEIRTGVDQCIQKFLDIARQTECFFLQKRLQLSVQKPEQVIKEDVSELRNELQRKDALVQKHLTKLRHWQQVLEDINVQHKKPADIPQGSLAYLGAGICQHPCTSEANVSKGQRQLAYEWADA | not soluble
10 | MGHHHHHHSHMACAEFSFHVPSLEELAGVMQKGLKDNFADVQVSVVDCPDLTKEPFTFPVKGICGKTRIAEVGGVPYLLPLVNQKKVYDLNKIAKEIKLPGAFILGAGAGPFQTLGFNSEFMPVIQTESEHKPPVNGSYFAHVNPADGGCLLEKYSEKCHDFQCALLANLFASEGQPGKVIEVKAKRRTGPLNFVTCMRETLEKHYGNKPIGMGGTFIIQKGKVKSHIMPAEFSSCPLNSDEEVNKWLHFYEMKAPLVCLPVFVSRDPGFDLRLEHTHFFSRHGEGGHYHYDTTPDIVEYLGYFLPAEFLYRIDQPKETHSIGRD | soluble
11 | MGHHHHHHSHMACLNPVPKLYRSVIEDVIEGVRNLFAEEGIEEQVLKDLKQLWETKVLQSKATEDFFRNSIQSPLFTLQLPHSLHQTLQSSTASLVIPAGRTLPSFTTAELGTSNSSANFTFPGYPIHVPAGVTLQTVSGHLYKVNVPIMVTETSGRAGILQHPIQQVFQQLGQPSVIQTSVPQLNPWSLQATTEKSQRIETVLQQPAILPSGPVDRKHLENATSDILVSPGNEHKIVPEALLCHQESSHYISLPGVVFSPQVSQTNSD | not soluble
12 | MGHHHHHHSHMADQKKVSEAAKEREIKISSSDNEIFLVPRNVIRLSNTINTLLMDLGLDDEEGTNAEPIPVQNVTASILKKVISWCNHHHSDPISTEDSDNREKRTDDIGSWDVEFLKVDQGTLFELILAANYLDIKGLLDVTCKTVANMIKGKSPEEIRRTFNIKNDFTPEEEEQIRKENAWCED | soluble
13 | MGHHHHHHSHMAFMVKSMVGGQLKNLTGSLGGGEDKGDGDKSAAEAQGMSREEYEEYQKQLVEEKMERDAQFTQRKAERATLRSHFRDKYRLPKNETDESQIQLAGGDVELPRELAKMIEEDTEEEEDKASVLGQLASLPGLDLSSLKDKAQTTLGDLKQSAEKCHIM | not soluble
14 | MGHHHHHHSHMAGAGVPGEATGRGAGGRRRKRPLQRGKPPYSYIALIAMAIAHAPERRLTLGGIYKFITERFPFYRDNPKKWQNSIRHNLTLNDCFLKIPREAGRPGKGNYWALDPNAEDMFESGSFLRRRKRFKRSDLST | soluble
15 | MGHHHHHHSHMAGEKAQKKGKEKWKEKTWYTVESPPYLGSKEVTVALGEDPESMVNRIVEVPISDLTGNFKKSNEKALFRITGCEGTKCKTIFIGHYIGDDYIRRLVRRRKERIDIIEDVKTSDGSIITVKIVVVSDGKLTNTKKSEIRKALTSFIVSKGSQLSYADFVRYLIGDDSYNDMVEATKNIYPLRKIEIRKSELVSLSGMQEPQKNEPAPGGEAIAQN | not soluble
16 | MGHHHHHHSHMAIVEHLYQQGMLSVAEELCQESTLNVDLDFKQPFLELNRILEALHEQDLGPALEWAVSHRQRLLELNSSLEFKLHRLHFIRLLAGGPAKQLEALSYARHFQPFARLHQREIQVMMGSLVYLRLGLEKSPYCHLLDSSHWAEICETFTRDACSLLGLSVESPLSVSFASGCVALPVLMNIKAVIEQRQCTGVWNHKDELPIEIELGMKCWYHSVFACPILRQQTSDSNPPIKLICGHVISRDALNKLINGGKLKCPYCPMEQNPADGKRIIF | not soluble
17 | MGHHHHHHSHMANPKLLGLELSEAEAIGADSARFEELLLQASKELQQAQTTRPESTQIQPQPGFCIKTNSSEGKVFINICHSPSIPPPADVTEEELLQMLEEDQAGFRIPMSLGEPHAELDAKGQGCTAYDVAVNSDFYRRMQNSDFLRELVITIAREGLEDKYNLQLNPEWRMMKNRPFMGSISQQNIRSEQRPRIQELGDLYTPAPGRAESGPEKPHLNLWLEAPDLLLAEIDLPKLDGALGLSLEIGENRLVMGGPQQLYHLDAYIPLQINSHESKAAFHRKRKQLMVAMPLLLVPS | not soluble
18 | MGHHHHHHSHMANSMANSMGITTLDDPLGHMPERFDAFICYCPSDIQFVQEMIRQLEQTNYRLKLCVSDRDVLPGTCVWSIASELIEKRCRRMVVVVSDDYLQSKECDFQTKFALSLSPGAHQKRLIPIKYKAMKKEFPSILRFITVCDYTNPCTKSWFWTRLAKALSLP | soluble
19 | MGHHHHHHSHMANSMANSMIRNKVMEQSFIEYSLGKDASSAVLWVYPARKPRGKAIIMCPGGGFNQIASDHEGRDFAAWFNNQGITYAVLNYRMPHGDVEVIREDIREAIRLIRRQSAEWGIHQLGVMGASIGGYIAATAATLYTGTDRPDFQVLLYPVISMTDRLTHWPSRERMLGETISEGLKETLSLELHVTADTPPTFIVLAEDDQAVSPLNSIVYYTALLKHGVSAGLHIYPEGGHSFGFRDSFIYKELWTDELQKWLLTF | soluble
20 | MGHHHHHHSHMARPWTEDGDWTEPGAPGGTEDRPSGGGKANRAHPIKQRPFPYEHKNTWSAQNCKNGSCVLDLSKCLFIQGKLLFAEPKDAGFPFSQDINSHLASLSMARNTSPTPDPTVREALCAPDNLNASIESQGQIKMYINEVCRETVSRCCNSFLQQAGLNLLISMTVINNMLAKSASDLKFPLISEGSGCAKVQVLKPLMGLSEKPVLAGELVGAQMLFSFMSLFIRNGNREILLETPAP | not soluble
21 | MGHHHHHHSHMASRVRVTILFATETGKSEALAWDLGALFSCAFNPKVVCMDKYRLSCLEEERLLLVVTSTFGNGDCPGNGEKLKKSLFMLKELNNKFRYAVFGLGSSMYPRFCAFAHDIDQKLSHLGASQLTPMGEGDELSGQEDAFRSWAVQTFKAACETF | not soluble
22 | MGHHHHHHSHMCPRCGKQFNHSSNLNRHMNVHRGVKSHSCGICGKCFTQKSTLHDHLNLHSGARPYRCSYCD | soluble
23 | MGHHHHHHSHMDADSASQRLVISAPDSQVRFSNIRTNDVAKTPQMHGTEMANSPQPPPLSPHPCDVVDEGVTKTPSTPQSQHFYQMPTPDPLVPSKPMEDRIDSLSQSFPPQYQEAVEPTVYVGTAVNLEEDEANIAWKYYKFPKKKDVEFLPPQLPSDKFKDDPVGPFGQESVTSVTEYVFFLIVTIII | not soluble
24 | MGHHHHHHSHMDNAVDRHVFYISDGTAITAEVLGHAVMSQFPVTISSITLPFVENESRARAVKDQIDAIYHQTGVRPLVFYSIVLPEIRAIILQSEGFCQDIVQALVAPLQQEMKLDPTPIAHRTHGLNPNNLNKYDARIAAIDYTLAHDDGISLRNLDQAQVILLGVSRCGKTPTSLYLAMQFGIRAANYPFIADDMDNLVLPASLKPLQHKLFGLTIDPERLAAIREERRENSRYASLRQCRMEVAEVEALYRKNQIPWINSTNYSVEEIATKILDIMGLSRRMY | not soluble
25 | MGHHHHHHSHMDVVDPDIFNRDPRDHYDLLQRLGGGTYGEVFKARDKVSGDLVALKMVKMEPDDDVSTLQKEILILKTCRHANIVAYHGSYLWLQKLWICMEFCGAGSLQDIYQVTGSLSELQISYVCREVLQGLAYLHSQKKIHRDIKGANILINDAGEVRLADFGISAQIGATLARRLSFIGTPYWMAPEVAAVALKGGYNELCDIWSLGITAIELAELQPPLFDVHPLRVLFLMTKSGYQPPRLKEKGKWSAAFHNFIKVTLTKSPKKRPSATKMLSHQLVSQPGLNRGLILDLLDKLKNPGKGPSIGDIEDEEPELPPAIPRRIRSTHRSSSLGIPDADCCRRHMEFRKLRGMETRPPANTARLQPPRDLRSSSPRKQLSES | soluble
26 | MGHHHHHHSHMEGSETGSREGSDVACTEGICNHDEHGDDSCVHHCEDKEDDGDSCVECWANSEENDTKGKNKKKKKKSKILKCDEHIQKLGSCITDPGNRETSGNTMHTVFHRDKTKDTHPESCCSSEKGGQPLPWFEHRKNVPQFAEPTETLFGPDSGKGAKSLVELLDESECTSDEEIFISQDEIQSFMANNQSFYSNREQYRQHLKEKFNKYCRLNDHKRPICSGWLTTAGAN | not soluble
27 | MGHHHHHHSHMGFGSDLKNSHEAVLKLQDWELRLLETVKKFMALRIKSDKEYASTLQNLCNQVDKESTVQMNYVSNVSKSWLLMIQQTEQLSRIMKTHAEDLNSGPLHRLTMMIKDKQQVKKSYIGVHQQIEAEMIKVTKTELEKLKCSYRQLIKEMNSAKEKYKEALAKG | soluble
